Results taken from patent publication US11661461B2, “Phospho-Rab antibodies, assays and methods of use thereof” (Denali Therapeutics Inc., priority 2017, dated 2023).
“Also recorded” adds a separate entry of the source.

Tests used:
LRRK2 = test: 7 days of dosing in cynomolgus monkeys, pT73-Rab10 and pS935-LRRK2 western blot; format: in vivo, cynomolgus monkey; conditions: 45 mg/kg daily
Description: Phosphorylated Rab10 was also tested in cynomolgus monkey lung and kidney tissue following 7 days of dosing with a LRRK2 inhibitor. Cynomolgus monkeys were dosed daily with the LRRK2 Inhibitor C at a dose of 45 mg/kg. […] Signals from dosed groups were normalized to vehicle control group. Data were presented as mean with SEM.

[1] = target: T1, endogenous phosphorylated Rab8a in human PBMC (Homo sapiens, UniProt P61006); test: Western blot of human PBMC with anti-pT72-Rab8a antibodies; format: binding; conditions: for detection of endogenous phosphorylated Rab8a signals in human PBMC by western blot: antibody at 1 ug/ml; for Western blot Human PBMC Ratio of DMSO/LRRK2 inhibitor A (mean ± SEM): band intensity normalized with Actin control for each of DMSO and LRRK2 inhibitor A, antibody 1 ug/ml
T1 construct: Strong endogenous phosphorylated Rab10 or phosphorylated Rab8a in human PBMC; host or cells: human PBMC
T1 sequence (P61006 1-207): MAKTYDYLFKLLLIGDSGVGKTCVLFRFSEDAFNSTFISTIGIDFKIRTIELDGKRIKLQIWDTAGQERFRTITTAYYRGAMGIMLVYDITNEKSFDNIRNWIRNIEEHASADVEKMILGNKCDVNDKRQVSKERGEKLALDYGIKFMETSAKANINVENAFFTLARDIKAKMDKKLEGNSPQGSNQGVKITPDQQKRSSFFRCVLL

[2] = target: T2, phosphorylated Rab10 in lysates of HEK cells overexpressing LRRK2 (Homo sapiens, UniProt P61026); test: Sandwich ELISA (diagnostic), HEK cells overexpressing LRRK2; format: binding; conditions: for Sandwich ELISA (diagnostic), Ratio: DMSO / LRRK2 inhibitor A RLU; for Sandwich ELISA (diagnostic) HEK cells overexpressing LRRK2, DMSO (RLU mean ± SD): DMSO treated cells; for Sandwich ELISA (diagnostic) HEK cells overexpressing LRRK2, LRRK2 inhibitor A (RLU mean ± SD): cells treated with LRRK2 inhibitor A
T2 construct: expressed in transfected cells; host or cells: HEK cells overexpressing LRRK2
T2 sequence (P61026 1-200): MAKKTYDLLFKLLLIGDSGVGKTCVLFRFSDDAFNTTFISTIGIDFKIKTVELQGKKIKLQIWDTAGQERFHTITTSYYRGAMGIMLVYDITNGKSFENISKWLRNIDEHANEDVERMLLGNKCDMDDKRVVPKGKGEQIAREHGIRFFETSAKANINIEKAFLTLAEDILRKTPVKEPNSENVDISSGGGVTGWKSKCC
Description: Sandwich ELISA (Diagnostic) with Anti-Phospho-Rab10 Antibody as the Capture Antibody:
ELISA plates were prepared by coating white Nunc MaxiSorp 384 well plates (Thermo Fisher #460372/Sigma #P6491) with capture antibody for 1 hour at room temperature on a shaking platform. The capture antibody was purified anti-phospho-Rab10 clone 19-4 diluted to 1 ug/mL in carbonate-bicarbonate buffer, and 15 uL/well of coating solution was added to the plate before incubation. Plates were then washed 3× with TBST on a BioTek plate washer. For all subsequent blocking/incubation steps, Pierce Starting Block T20 (TBS) was used (Thermo Fisher #37543). Plates were blocked […] in this solution using 80 uL/well and washed 3× as before. Afterwards samples of cell lysates were added (neat with no dilution) using 30 uL/well and incubated 1 hour at room temperature on a shaking platform. After another 3× wash detection antibody (Creative Diagnostics DCABH 13141, or Abcam, ab104859, 2 ug/mL) was added using 30 uL/well. After 60 minute incubation at room temperature and washing 3×, the secondary anti-species conjugate was added (anti-rabbit HRP antibody (Jackson ImmunoResearch 111-035-144) diluted 1:20000 in assay diluent) at 30 uL/well. After a 60 minute incubation, plates were washed 3× as before. The HRP substrate (Supersignal ELISA Femto HRP substrate—Thermo Fisher #37075) was prepared during this time by mixing both components and equilibrating to room temperature. 50 uL/well of substrate was added to plates, which then were covered and briefly incubated for 1-2 minutes on a shaker platform. Afterwards plates were read on the Synergy plate reader to measure relative light units (RLU).
Sandwich ELISA (Diagnostic) with Anti-Rab10 (Total) Antibody as the Capture Antibody:
ELISA plates were prepared by coating white Nunc MaxiSorp 384 well plates (Thermo Fisher #460372/Sigma # P6491) with capture antibody overnight at 4° C. on a shaking platform. The capture antibodies (anti-Rab10 antibody from either Creative Diagnostics, DCABH-13141, or Abcam, ab104859) were diluted to […] (or 1:100 if the concentration not known) in carbonate-bicarbonate buffer, and 15 uL/well of coating solution was added to the plate before incubation. After this plates were washed 3× with TBST on a BioTek plate washer. For all subsequent blocking/incubation steps, Pierce Starting Block (TBS) (no Tween added) was used (Thermo Fisher #37542). Plates were blocked for 1 hour at room temperature in this solution using 80 uL/well and washed 3× as before. Afterwards samples were added (with lysates being diluted 1:20 in the assay diluent) using 30 uL/well and incubated 2 hours at room temperature on a shaking platform. After another 3× wash detection antibodies were added (diluted to 1 ug/mL for purified antibodies or 1:2 for supernatants) using 30 uL/well. After 90 minute incubation at room temperature and washing 3× the secondary anti-species conjugate was added (anti-rabbit HRP antibody (Jackson ImmunoResearch 111-035-144) diluted 1:20000 in assay diluent) at 30 uL/well. After a 45 minute incubation plates were washed 3× as before. The HRP substrate (Supersignal ELISA Femto HRP substrate—Thermo Fisher #37075) was prepared during this time by mixing both components and equilibrating to room temperature. 50 uL/well of substrate was added to plates, which then were covered and briefly incubated for 1-2 minutes on a shaker platform. Afterwards plates were read on the Synergy plate reader to measure relative light units (RLU).

pT73-Rab10 = target: T3, pT73-Rab10 (Homo sapiens, UniProt P61026); test: Phospho-Rab10 MSD assay (clone 19-4 as capture antibody); format: binding; conditions: anti-total Rab10 antibody for detection
T3 construct: Strong endogenous phosphorylated Rab10 or phosphorylated Rab8a in human PBMC; host or cells: human PBMC
T3 sequence (P61026 1-200): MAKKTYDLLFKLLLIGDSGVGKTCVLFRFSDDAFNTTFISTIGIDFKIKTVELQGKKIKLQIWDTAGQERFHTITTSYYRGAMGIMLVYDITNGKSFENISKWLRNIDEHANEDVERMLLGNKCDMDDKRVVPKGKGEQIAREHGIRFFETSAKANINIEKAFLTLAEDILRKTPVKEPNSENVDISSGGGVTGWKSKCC

[3] = target: T4, endogenous phosphorylated Rab10 in human PBMC (Homo sapiens, UniProt P61026); test: Western blot of human PBMC with anti-pT73-Rab10 antibodies; format: binding; conditions: for detection of endogenous phosphorylated Rab10 signals in human PBMC by western blot: antibody at 1 ug/ml; for Western blot Human PBMC Ratio of DMSO/LRRK2 inhibitor A (mean ± SEM): band intensity normalized with Actin control for each of DMSO and LRRK2 inhibitor A, antibody 1 ug/ml
T4 construct: Strong endogenous phosphorylated Rab10 or phosphorylated Rab8a in human PBMC; host or cells: human PBMC
T4 sequence (P61026 1-200): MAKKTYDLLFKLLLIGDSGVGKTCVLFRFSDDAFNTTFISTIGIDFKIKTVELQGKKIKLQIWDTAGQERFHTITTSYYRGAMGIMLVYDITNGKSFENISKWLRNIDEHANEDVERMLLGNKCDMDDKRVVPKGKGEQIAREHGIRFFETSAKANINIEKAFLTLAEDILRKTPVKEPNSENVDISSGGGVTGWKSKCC

[4] = normalized to actin and vehicle control group, mean with SEM, N = 4
[5] = normalized to vinculin and vehicle control group, mean with SEM, N = 4

Cc1nn(C(C)(C)c2ncn(C)n2)cc1Nc1ncc(C(F)(F)F)c(C2CC2)n1 [LRRK2 Inhibitor C, 4-cyclopropyl-N-(3-methyl-1-(2-(1-methyl-1H-1,2,4-triazol-3-yl)propan-2-yl)-1H-pyrazol-4-yl)-5-(trifluoromethyl)pyrimidin-2-amine]
dephosphorylation of pT73-Rab10 and pS935-LRRK2 (LRRK2; lung and kidney): significant dephosphorylation | pT73-Rab10, Kidney (LRRK2; [4]): 0.547 ± 0.125 | pT73-Rab10, Lung (LRRK2; [4]): 0.189 ± 0.0562 | pS935-LRRK2, Kidney (LRRK2; [5]): 0.0563 ± 0.0147 | pS935-LRRK2, Lung (LRRK2; [5]): 0.102 ± 0.0215

B1: Clone 71-3: anti-phosphorylated (pT72) Rab8a rabbit monoclonal antibody; VH SEQ ID NO:71, VL SEQ ID NO:75 (antibody, V domains shown)
VH: METGLRWLLLVAVLKGVQCQSVEESGGRLVTPGTPLTLTCTASGFSLNVYYMTWVRQAPGKGLDWIGIINTDITVHYANWARGRFTISKTSTTVDLKITSPTTEDTATYFCARARNSAWMDIWGPGTLVTVSL
VL: MDTRAPTQLLGLLLLWLPGATFAAVLTQTPSPVSAAVGGTVTINCQSDWSVYNNNLAWYQHKPGQPPKLLIYKTSTLASGVPSRFRGSGSGTQFTLTISDVQCDDTATYYCAGGYYRDSDTAFGGGTEVVVK
detection of endogenous phosphorylated Rab8a signals in human PBMC by western blot [1]: detected endogenous phosphorylated Rab signals | Western blot Human PBMC Ratio of DMSO/LRRK2 inhibitor A (mean ± SEM) [1]: 2.61 ± 0.42

B2: Clone 19-4: anti-phosphorylated (pT73) Rab10 rabbit monoclonal antibody; VH SEQ ID NO:17, VL SEQ ID NO:18 (antibody, V domains shown)
VH: METGLRWLLLVAVLKGVQCQSVEESGGRLVTPGTPLTLTCTVSGFSLSSYAMVWVRQAPGKGLEYIGLISRSGVTYYATWAKGRFTISKASTTVDLKIASPTTGDTATYFCVRDYDSAGWSGFTIWGPGTLVTVSA
VL: MDTRAPTQLLGLLLLWLPGAICDPVMTQTPSSTSAAVGGTVTINCQSSQSVYGNNYLSWYQQKPGQPPKLLIYKASTLASGVPSRFVGSGSGTQFTLTISDLECDDAATYYCAGAASDTRFFGGGTELVVN
Sandwich ELISA (diagnostic), Ratio [2]: 37.40 | Sandwich ELISA (diagnostic) HEK cells overexpressing LRRK2, DMSO (RLU mean ± SD) [2]: 80524 ± 7835 RLU | Sandwich ELISA (diagnostic) HEK cells overexpressing LRRK2, LRRK2 inhibitor A (RLU mean ± SD) [2]: 2153 ± 774 RLU | pRab10 signals in phospho-Rab10 MSD assay (pT73-Rab10; human A549 cells, listed as 19-4): showed pRab10 signals | pRab10 signals in phospho-Rab10 MSD assay (pT73-Rab10; human PBMCs): showed pRab10 signals | detection of endogenous phosphorylated Rab10 signals in human PBMC by western blot ([3]; listed as 19-4): detected endogenous phosphorylated Rab signals; also recorded: Detection of phosphorylated Rab10 | Western blot Human PBMC Ratio of DMSO/LRRK2 inhibitor A (mean ± SEM) [3]: 2.95 ± 0.68

B3: Clone 86-9: anti-phosphorylated (pT72) Rab8a rabbit monoclonal antibody; VH SEQ ID NO:81, VL SEQ ID NO:85 (antibody, V domains shown)
VH: METGLRWLLLVAVLKGVQCQSVEESGGRLVTPGTPLTLTCTVSGFSLSSYYITWVRQAPGKGLEWLGIMNAGTTVHYANWVKGRFAISKTSTTVDLKITSPTTEDTATYFCARARNSVWMDIWGPGTLVTVSL
VL: MDTRAPTQLLGLLLLWLPGATLAAVLTQTPSPVSGAVGGSVTVNCQSDKSVYRDNLAWYQQKPGQPPKLLIYKASTLASGVPSRFRGSGAGTQFTLTISDVQCDDAATYFCAGGYSSDSDTAFGGGTEVVVK
detection of endogenous phosphorylated Rab8a signals in human PBMC by western blot [1]: detected endogenous phosphorylated Rab signals | Western blot Human PBMC Ratio of DMSO/LRRK2 inhibitor A (mean ± SEM) [1]: 2.26 ± 0.12

B4: Clone 81-11: anti-phosphorylated (pT73) Rab10 rabbit monoclonal antibody; VH SEQ ID NO:21, VL SEQ ID NO:25 (antibody, V domains shown)
VH: METGLRWLLLVAVLKGVQCQSVEESGGRLVTPGTPLTLTCTVSGFSLSSYAMSWVRQAPGKGLEYIGLFNDVGIAYYANWAKGRFTFSKTSTTVDLKITSPTTEDTATYFCARVGGTTRVYGMDLWGPGTLVTVSS
VL: MDTRAPTQLLGLLLLWLPGATFAAVLTQTPSPVSAAVGGTVSISCQSSKSVRHNNYLSWYQQKPGQRPKLLIYGASTLASGVPSRFSGSGSGTEFTLTISDVQCDDAATYYCAGGYSGGGDDAFGGGTEVVVE
Sandwich ELISA (diagnostic), Ratio [2]: 33.74 | Sandwich ELISA (diagnostic) HEK cells overexpressing LRRK2, DMSO (RLU mean ± SD) [2]: 473585 ± 44210 RLU | Sandwich ELISA (diagnostic) HEK cells overexpressing LRRK2, LRRK2 inhibitor A (RLU mean ± SD) [2]: 14037 ± 1627 RLU | detection of endogenous phosphorylated Rab10 signals in human PBMC by western blot [3]: detected endogenous phosphorylated Rab signals | Western blot Human PBMC Ratio of DMSO/LRRK2 inhibitor A (mean ± SEM) [3]: 2.48 ± 0.31

B5: Clone 20: anti-phosphorylated (pT72) Rab8a rabbit monoclonal antibody; VH SEQ ID NO:63, VL SEQ ID NO:66 (antibody, V domains shown)
VH: METGLRWLLLVAVLKGVQCQSVEESGGRLVTPGTPLTLTCTVSGFSLSSYAMGWVRQAPGEGLEYFGIINTGGSAYYTNWAKGRFTISRTSTTVHLKITSPTTEDTATYFCARIAGDTRYYGMDPWGPGTLVTVSS
VL: MDTRAPTQLLGLLLLWLPGATFAAVLTQTPSPVSAAVGGTVSISCQSSKSVRNNNYLAWYQQKPGQPPKLLIYGASTLASGVPSRFKGSGSGTQFTLTISDVQCDDAATYYCAGGYDGGSDDAFGGGTEVVVK
detection of endogenous phosphorylated Rab8a signals in human PBMC by western blot ([1]; listed as 20): detected endogenous phosphorylated Rab signals | Western blot Human PBMC Ratio of DMSO/LRRK2 inhibitor A (mean ± SEM) [1]: 3.50 ± 0.52
